Data as given in article PMC6692130, “PHLPP1 counter-regulates STAT1-mediated inflammatory signaling” (eLife, 2019).

Target: T1, HA-tagged PHLPP1 N-terminal extension (PHLPP1 NTE), residues 1-512 (UniProt O60346 1-512)
T1 construct: PH domain Leucine-rich repeat Protein Phosphatase 1 (PHLPP1), N-terminal extension, residues 1-512 of the 1717-residue protein; also called HA-NTE; pCDNA3 HA PHLPP1 NTE-WT; source: HEK-293T, transfected, in lysate; not shown: HA, N-terminal, kept
T1 sequence (looked up): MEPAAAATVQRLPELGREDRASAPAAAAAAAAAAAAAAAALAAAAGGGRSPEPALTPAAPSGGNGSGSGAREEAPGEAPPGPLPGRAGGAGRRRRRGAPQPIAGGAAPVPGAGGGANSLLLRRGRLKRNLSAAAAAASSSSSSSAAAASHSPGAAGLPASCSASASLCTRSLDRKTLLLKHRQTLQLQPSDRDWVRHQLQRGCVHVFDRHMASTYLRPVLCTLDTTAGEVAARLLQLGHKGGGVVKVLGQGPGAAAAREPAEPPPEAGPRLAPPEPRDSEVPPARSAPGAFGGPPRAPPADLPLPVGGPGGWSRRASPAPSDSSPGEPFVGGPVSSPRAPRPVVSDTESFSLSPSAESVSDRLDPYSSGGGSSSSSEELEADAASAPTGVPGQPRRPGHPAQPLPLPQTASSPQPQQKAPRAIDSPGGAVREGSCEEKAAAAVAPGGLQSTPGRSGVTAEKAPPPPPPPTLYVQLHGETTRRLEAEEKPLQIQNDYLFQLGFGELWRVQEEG
Assay: co-IP; HEK-293T cells transfected with HA-tagged PHLPP1 constructs and GFP-STAT1; detergent-solubilized lysates incubated with anti-HA antibody at 4°C overnight, protein A/G agarose 1 hr at 4°C, washed three times in lysis buffer with 0.3 M NaCl and 0.1% Triton X 100; blot probed with GFP antibody; GFP-STAT1 IP divided by HA IP, normalized to HA-NTE IP, three independent experiments
Details: partners not purified

- fold binding against PHLPP1 lacking the NTE: ~26 fold
- fold binding against full-length PHLPP1: ~5 fold
B1: GFP-STAT1 (natural protein, UniProt P42224 1-750, looked up)
chain: MSQWYELQQLDSKFLEQVHQLYDDSFPMEIRQYLAQWLEKQDWEHAANDVSFATIRFHDLLSQLDDQYSRFSLENNFLLQHNIRKSKRNLQDNFQEDPIQMSMIIYSCLKEERKILENAQRFNQAQSGNIQSTVMLDKQKELDSKVRNVKDKVMCIEHEIKSLEDLQDEYDFKCKTLQNREHETNGVAKSDQKQEQLLLKKMYLMLDNKRKEVVHKIIELLNVTELTQNALINDELVEWKRRQQSACIGGPPNACLDQLQNWFTIVAESLQQVRQQLKKLEELEQKYTYEHDPITKNKQVLWDRTFSLFQQLIQSSFVVERQPCMPTHPQRPLVLKTGVQFTVKLRLLVKLQELNYNLKVKVLFDKDVNERNTVKGFRKFNILGTHTKVMNMEESTNGSLAAEFRHLQLKEQKNAGTRTNEGPLIVTEELHSLSFETQLCQPGLVIDLETTSLPVVVISNVSQLPSGWASILWYNMLVAEPRNLSFFLTPPCARWAQLSEVLSWQFSSVTKRGLNVDQLNMLGEKLLGPNASPDGLIPWTRFCKENINDKNFPFWLWIESILELIKKHLLPLWNDGCIMGFISKERERALLKDQQPGTFLLRFSESSREGAITFTWVERSQNGGEPDFHAVEPYTKKELSAVTFPDIIRNYKVMAAENIPENPLKYLYPNIDKDHAFGKYYSRPKEAPEPMELDGPKGTGYIKTELISVSEVHPSRLQTTDNLLPMSPEEFDEVSRIVGSVEFDSMMNTV
notes: STAT1, detected in the co-IP by its GFP tag; the methods give no source or limits for it; source: HEK-293T, transfected, in lysate
